Data on one substance can be found in article PMC5222524.

This test has as its target Class C scavenger receptor of Marsupenaeus japonicus (MjSRC), native protein of hemocytes (Marsupenaeus japonicus (endogenous in hemocytes)). Put plainly: cross-linking; hemocytes collected 30 min after injection of WSSV or PBS, 5 mM BS3 at 4°C for 1 h in PBS pH 8.0, quenched with Tris-HCl; SDS-PAGE and western blotting with anti-MjSRC sera; oligomer size by molecular mass. (A western blot detects proteins with antibodies after separation by electrophoresis.)

Broadly, the stoichiometry N is a count of units in the complex or per binding partner. Substance “Class C scavenger receptor of Marsupenaeus japonicus (MjSRC), native protein of hemocytes (from UniProt A0A1L2DC21 1-692)” yielded a stoichiometry N of 3.
